Where a chain is given by its changes, count along the chain named. Several values for one entry are separate records, joined by “and”; a condition that tells them apart may be missing. Identical values can stand only once. One block for each binder: values may come before it.
Columns and labels:
[1] = target: T1, human serum albumin (human, UniProt P02768 25-609); experiment: SPR (BIAcore 3000), HSA amine-coupled on CM5 chip, ILF as analyte, 1:1 Langmuir fit, 25 C
T1 construct: Amine-coupled to a CM5 BIAcore chip; also called HSA
T1 sequence (P02768 25-609 limits assumed): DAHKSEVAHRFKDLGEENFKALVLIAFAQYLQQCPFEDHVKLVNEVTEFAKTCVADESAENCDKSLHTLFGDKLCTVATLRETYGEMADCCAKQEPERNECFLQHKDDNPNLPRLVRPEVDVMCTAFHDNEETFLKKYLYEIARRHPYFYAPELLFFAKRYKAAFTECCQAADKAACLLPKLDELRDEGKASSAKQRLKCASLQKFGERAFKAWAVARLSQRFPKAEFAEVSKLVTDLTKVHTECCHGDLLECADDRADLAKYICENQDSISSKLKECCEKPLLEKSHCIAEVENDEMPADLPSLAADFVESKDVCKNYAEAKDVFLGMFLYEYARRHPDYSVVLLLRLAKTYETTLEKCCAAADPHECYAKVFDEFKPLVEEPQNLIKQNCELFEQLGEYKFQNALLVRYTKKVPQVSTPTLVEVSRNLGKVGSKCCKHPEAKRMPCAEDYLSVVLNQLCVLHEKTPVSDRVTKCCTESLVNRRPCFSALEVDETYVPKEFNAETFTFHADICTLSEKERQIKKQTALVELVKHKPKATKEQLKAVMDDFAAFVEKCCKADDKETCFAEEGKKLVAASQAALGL
Excerpt: (§1) A BIAcore™ 3000 instrument (GE Healthcare) was used to analyze the binding kinetics of anti-CD40-AlbudAb ILFs to human and cynomolgus serum albumin. Approximately 400 response units (RU) of human serum albumin (HSA) or cynomolgus serum albumin (CSA) were immobilized on a flow-cell of a CM5 BIAcore™ chip using an Amine Coupling Kit (GE Healthcare). A second flow cell without any ligand immobilized served as a reference flow-cell for inline referencing. An appropriate doubling dilution series of each dAb to be analyzed was prepared in HBS-EP buffer (0.01 M HEPES pH 7.4 with 0.15 M NaCl, 3 mM EDTA and 0.005% v/v Surfactant P20, GE Healthcare). Two hundred microlitres of each ILF were injected in duplicate using the instrument's KINJECT function. The injections were made across the serum albumin-immobilized and reference flow-cells in series, with inline subtraction of the signal from the reference cell. The experiment was performed at 25° C. and a flow rate of 40 μl/min of HBS-EP. After each injection had been completed, the dAb was allowed to dissociate from the ligand in buffer for 120 s before regeneration with a 10 μl injection of 10 mM glycine pH 2.0. A reference injection of HBS-EP buffer blank (containing no analyte) was also injected under the same conditions to serve as a second reference for subtraction from each analyte trace. BIAevaluation 4.1 software (GE Healthcare) was used to subtract both the reference flow-cell trace and the buffer blank trace from each analyte trace.
(§2) The same software was used to perform a simultaneous, global fit of a 1:1 (Langmuir) kinetic model to the association and dissociation phases of the analyte dilution series traces. This model yielded association and dissociation rate constants (kₐ and kd, respectively) and the equilibrium dissociation constant (KD) of the interaction.

[2] = target: T2, human CD40 (human, UniProt P25942 21-277); experiment: CHO-CD40 cell RBA: competition with biotinylated human IZ-CD40L for human CD40 on CHO cells, fluorescence (FMAT); 50 µM HSA
T2 construct: Native on primary human tonsillar B cells, monocyte-derived dendritic cells and RAMOS cells; stably transfected on CHO-DG44 cells; also called hCD40

[3] = target: T3, cynomolgus serum albumin (cynomolgus, UniProt A2V9Z4 25-608); experiment: SPR (BIAcore 3000), CSA amine-coupled on CM5 chip, ILF as analyte, 1:1 Langmuir fit, 25 C
T3 construct: Amine-coupled to a CM5 BIAcore chip; also called CSA; Cyno Serum Albumin
T3 sequence (A2V9Z4 25-608 limits assumed): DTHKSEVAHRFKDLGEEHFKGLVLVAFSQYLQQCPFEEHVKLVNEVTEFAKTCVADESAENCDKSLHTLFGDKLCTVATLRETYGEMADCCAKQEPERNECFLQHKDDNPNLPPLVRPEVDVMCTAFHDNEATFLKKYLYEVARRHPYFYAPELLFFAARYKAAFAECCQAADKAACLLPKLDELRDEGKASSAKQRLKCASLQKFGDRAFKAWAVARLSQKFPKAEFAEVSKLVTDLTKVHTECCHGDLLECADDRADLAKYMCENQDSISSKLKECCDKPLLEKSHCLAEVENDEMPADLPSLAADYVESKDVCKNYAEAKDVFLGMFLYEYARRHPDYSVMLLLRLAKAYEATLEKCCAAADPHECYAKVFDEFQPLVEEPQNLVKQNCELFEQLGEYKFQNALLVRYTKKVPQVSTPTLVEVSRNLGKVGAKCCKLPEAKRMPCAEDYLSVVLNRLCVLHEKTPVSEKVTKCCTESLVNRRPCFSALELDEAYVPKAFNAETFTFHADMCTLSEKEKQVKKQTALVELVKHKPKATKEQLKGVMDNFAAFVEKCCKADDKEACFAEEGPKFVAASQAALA
Excerpt: as §1, §2

[4] = target: T2, human CD40; experiment: CHO-CD40 cell RBA: competition with biotinylated human IZ-CD40L for human CD40 on CHO cells, fluorescence (FMAT); 0.1% BSA
[5] = target: T2, human CD40; experiment: cell-based or functional assay
[6] = target: T4, human CD40 (H76R, W109L, L121P) Fc fusion (human); experiment: SPR, ProteOn XPR36; CD40-Fc captured, dAb analyte
T4 construct: Same construct as wt-hCD40 with H76R, W109L and L121P; also called hCD40-M5; hCD40-M5 (H76R, W109L, L121P); not shown: human IgG1 Fc
T4 chain: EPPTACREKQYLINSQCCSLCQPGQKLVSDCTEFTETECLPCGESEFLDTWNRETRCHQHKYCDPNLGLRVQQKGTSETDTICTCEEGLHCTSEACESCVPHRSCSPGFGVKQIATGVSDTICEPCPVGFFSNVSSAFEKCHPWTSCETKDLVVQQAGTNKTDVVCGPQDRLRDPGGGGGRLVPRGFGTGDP

[7] = target: T5, human CD40 (W109L, L121P) Fc fusion (human, UniProt P25942 21-193); experiment: SPR, ProteOn XPR36; CD40-Fc captured, dAb analyte
T5 construct: Same construct as wt-hCD40 with W109L and L121P; also called hCD40-M4; hCD40 M4 (W109L, L121P); not shown: human IgG1 Fc

[8] = target: T6, human CD40 (H76R) Fc fusion (human, UniProt P25942 21-193); experiment: SPR, ProteOn XPR36; CD40-Fc captured, dAb analyte; 1:1 fit;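 for Kd: CD40-Fc captured on anti-human IgG(Fc) surface of a GLC chip, buffer pH 7.1, sensorgrams double-referenced against surfaces without CD40-Fc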;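 for koff: CD40-Fc captured on anti-human IgG(Fc) surface of a GLC chip, buffer pH 7.1, sensorgrams double-referenced against surfaces without CD40-Fc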;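 for kon: CD40-Fc captured on anti-human IgG(Fc) surface of a GLC chip, buffer pH 7.1, sensorgrams double-referenced against surfaces without CD40-Fc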
T6 construct: also called hCD40-M1; hCD40 M1 (H76R); not shown: human IgG1 Fc

[9] = target: T4, human CD40 (H76R, W109L, L121P) Fc …; experiment: as above
Description: (§3) Assays were performed on a BioRad ProteOn XPR36 SPR instrument. The SPR surfaces were prepared by immobilizing 8 μg/ml anti-human IgG(Fc) antibody (Biacore/GE Healthcare) in 10 mM sodium acetate pH 4.5 on a BioRad GLC sensor chip using standard ethyl(dimethylaminopropyl) carbodiimide (EDC)/N-hydroxysuccinimide (NHS) chemistry, with ethanolamine blocking. The running buffer for immobilization and kinetic binding analysis was 10 mM sodium phosphate, 130 mM sodium chloride, 0.05% tween 20, pH 7.1. CD40-Fc fusion proteins at concentrations of 20 μg/ml were captured in the vertical orientation on these surfaces via the Fc tail, and reference surfaces lacking CD40-Fc proteins were used for reference subtraction. […] The surfaces were regenerated in both horizontal and vertical orientations with 30 s pulses of 3 M MgCl₂ followed by running buffer at 60 μl/min. Sensogram data was double-referenced and then fitted to a 1:1 Langmuir model using BioRad ProteOn Manager V.2.1.0.38 software, to determine the association rate constant (ka), the dissociation rate constant (kd), and the equilibrium dissociation constant (KD).

[10] = target: T7, human CD40 (W109L) Fc fusion (human, UniProt P25942 21-193); experiment: as above
T7 construct: Same construct as wt-hCD40 with W109L; also called hCD40-M2; hCD40 M2 (W109L); not shown: human IgG1 Fc

[11] = target: T8, wild type cynomolgus monkey CD40 Fc fusion (cynomolgus monkey (Macaca …)); experiment: as above
T8 construct: also called wt-cCD40; wt-cyno-CD40; not shown: human IgG1 Fc
T8 chain: T4 chain with A95S, S106L, H142R, L172Q

[12] = target: T9, human CD40 (W109R) Fc fusion (Chimpanzee CD40) (human, UniProt P25942 21-193); experiment: as above
T9 construct: Same construct as wt-hCD40 with W109R (the residue of chimpanzee CD40); also called hCD40-M3; hCD40 M3 (W109R); not shown: human IgG1 Fc

[13] = target: T10, wild type human CD40 Fc fusion (human, UniProt P25942 21-193); experiment: as above
T10 construct: also called wt-hCD40; not shown: human IgG1 Fc

[14] = target: T5, human CD40 (W109L, L121P) Fc fusion; experiment: as above
Description: as §3

[15] = target: T10, wild type human CD40 Fc fusion; experiment: SPR, ProteOn XPR36; CD40-Fc captured, dAb analyte; 1:1 fit; repeat
Description: as §3

B1: DMS0659 DOM7h-11-87-TVAAPS-BMS3h-56-201 (bispecific antibody)
chain: DIQMTQSPSSLSASVGDRVTITCRASRPIGTMLSWYQQKPGKAPKLLILAFSRLQSGVPSRFSGSGSGTDFTLTISSLQPEDFATYYCAQAGTHHTTFGQGTKVEIKRTVAAPSEVQLLESGGGLVQPGGSLRLSCAASGFTFRDYEMWWVRQAPGKGLERVSAINPQGTRTYYADSVKGRFTISRDNSKNTLYLQMNSLRAEDTAVYYCAKLPFYFQEWGQGTLVTVSS
notes: AlbudAb inline fusion (ILF): an anti-CD40 dAb and an anti-serum-albumin dAb joined by a linker in one polypeptide
koff [1]: 0.00117 s⁻¹ and 0.00169 s⁻¹ and 0.0012 s⁻¹
EC50 [2]: 3.3 nM
koff [3]: 0.00237 s⁻¹ and 0.00337 s⁻¹ and 0.0024 s⁻¹
EC50 [4]: 7.2 nM

B2: DMS0658 DOM7h-11-3-TVAAPS-BMS3h-56-201 (bispecific antibody)
chain: B1 chain with M32T, A50W, F51N, H95P
notes: as for B1
EC50 [2]: 9.1 nM
EC50 [4]: 12.2 nM

B4: DMS0661 DOM7h-11-87-TVAAPS-BMS3h-56-258 (bispecific antibody)
chain: B1 chain with Q218H
notes: as for B1
EC50 [2]: 5.7 nM
EC50 [4]: 4.1 nM

B8: DMS0654 BMS3h-56-201-AST-DOM7h-11-3 (bispecific antibody)
chain: EVQLLESGGGLVQPGGSLRLSCAASGFTFRDYEMWWVRQAPGKGLERVSAINPQGTRTYYADSVKGRFTISRDNSKNTLYLQMNSLRAEDTAVYYCAKLPFYFQEWGQGTLVTVSSASTDIQMTQSPSSLSASVGDRVTITCRASRPIGTTLSWYQQKPGKAPKLLILWNSRLQSGVPSRFSGSGSGTDFTLTISSLQPEDFATYYCAQAGTHPTTFGQGTKVEIKR
notes: as for B1
EC50 [2]: 8.6 nM
EC50 [4]: 15 nM

B9: DMS0655 BMS3h-56-201-AST-DOM7h-11-87 (bispecific antibody)
chain: B8 chain with T151M, W169A, N170F, P214H
notes: as for B1
EC50 [2]: 2.7 nM
EC50 [4]: 6.3 nM

B12: BMS3h-56-2 (other)
VH: EVQLLESGGGLVQPGGSLRLSCAASGFTFRDYEMWWVRQAPGKGLERVSAINPQGTRTYYADSVKGRFTISRDNSKNTLYLQMNSLRAEDTAVYYCAKLPFTFDDWGQGTLVTVSS
notes: Anti-human CD40 domain antibody (dAb), single VH domain
binding result [6]: no binding (tested: dAb tested up to 405 nM)
binding result [7]: no binding (tested: dAb tested up to 405 nM)

B13: BMS3h-217-16 (other)
VL: DIQMTQSPSSLSASVGDRVTITCRASHFIGTLLSWYQQKPRKAPKLLITYGSLLQSGVPSRFSGSGSGTDFTLTISSLQPEDFATYYCGQGVLWPPTFGQGTKVEIKR
notes: Anti-human CD40 domain antibody (dAb), single V kappa domain
Kd [8]: 0.35 nM
koff [8]: 0.00168 s⁻¹
kon [8]: 4.83e+06 M⁻¹ s⁻¹
Kd [9]: 0.47 nM
koff [9]: 0.0017 s⁻¹
kon [9]: 3.65e+06 M⁻¹ s⁻¹
Kd [10]: 0.41 nM
koff [10]: 0.00167 s⁻¹
kon [10]: 4.06e+06 M⁻¹ s⁻¹
Kd [11]: 0.43 nM
koff [11]: 0.00147 s⁻¹
kon [11]: 3.44e+06 M⁻¹ s⁻¹
Kd [12]: 0.27 nM
koff [12]: 0.00104 s⁻¹
kon [12]: 3.78e+06 M⁻¹ s⁻¹
Kd [13]: 0.22 nM
koff [13]: 0.000991 s⁻¹
kon [13]: 4.47e+06 M⁻¹ s⁻¹
Kd [14]: 0.35 nM
koff [14]: 0.00152 s⁻¹
kon [14]: 4.39e+06 M⁻¹ s⁻¹
Kd [15]: 0.26 nM
koff [15]: 0.000847 s⁻¹
kon [15]: 3.3e+06 M⁻¹ s⁻¹

Now from value to binder:

ICAM-1 Cell Assay EC50 (nM), 10% bovine serum [5]: 33.5 nM
ICAM-1 Cell Assay EC50 (nM), 10% human serum [5]: > 1000 nM
Kd [1]: 1.21 nM and 1.23 nM
koff [1]: 0.00133 s⁻¹ and 0.00147 s⁻¹
kon [1]: 1.1e+06 M⁻¹ s⁻¹ and 1.19e+06 M⁻¹ s⁻¹
Kd [3]: 2.5 nM and 2.42 nM
koff [3]: 0.00252 s⁻¹ and 0.00266 s⁻¹
kon [3]: 1.01e+06 M⁻¹ s⁻¹ and 1.1e+06 M⁻¹ s⁻¹
B3: DMS0662 DOM7h-11-90-TVAAPS-BMS3h-56-201 (bispecific antibody)
chain: B1 chain with S77N, H95P
notes: as for B1

ICAM-1 Cell Assay EC50 (nM), 10% bovine serum [5]: 21.4 nM
ICAM-1 Cell Assay EC50 (nM), 10% human serum [5]: > 1000 nM
Kd [1]: 1.12 nM and 1.21 nM
koff [1]: 0.0014 s⁻¹ and 0.0016 s⁻¹
kon [1]: 1.25e+06 M⁻¹ s⁻¹ and 1.32e+06 M⁻¹ s⁻¹
Kd [3]: 2.38 nM and 2.52 nM
koff [3]: 0.00281 s⁻¹ and 0.00296 s⁻¹
kon [3]: 1.18e+06 M⁻¹ s⁻¹
B5: DMS0663 DOM7h-11-86-TVAAPS-BMS3h-56-201 (bispecific antibody)
chain: B1 chain with F83V, H95P
notes: as for B1

ICAM-1 Cell Assay EC50 (nM), 10% bovine serum [5]: 16.5 nM
ICAM-1 Cell Assay EC50 (nM), 10% human serum [5]: > 1000 nM
Kd [1]: 0.57 nM and 1.59 nM
koff [1]: 0.00142 s⁻¹ and 0.00149 s⁻¹
kon [1]: 2.5e+06 M⁻¹ s⁻¹ and 930000 M⁻¹ s⁻¹
Kd [3]: 1.09 nM and 2.97 nM
koff [3]: 0.00273 s⁻¹ and 0.00272 s⁻¹
kon [3]: 2.51e+06 M⁻¹ s⁻¹ and 920000 M⁻¹ s⁻¹
B6: DMS0664 DOM7h-11-69-TVAAPS-BMS3h-56-201 (bispecific antibody)
chain: B1 chain with T93V, H95P
notes: as for B1

EC50 [2]: 13.1 nM
EC50 [4]: 21.8 nM
B7: DMS0660 DOM7h-11-3-TVAAPS-BMS3h-56-258 (bispecific antibody)
chain: B1 chain with M32T, A50W, F51N, H95P, Q218H
notes: as for B1

EC50 [2]: 16.6 nM
EC50 [4]: 6.8 nM
B10: DMS0657 BMS3h-56-258-AST-DOM7h-11-87 (bispecific antibody)
chain: B8 chain with Q104H, T151M, W169A, N170F, P214H
notes: as for B1

EC50 [2]: 26.8 nM
EC50 [4]: 11.8 nM
B11: DMS0656 BMS3h-56-258-AST-DOM7h-11-3 (bispecific antibody)
chain: B8 chain with Q104H
notes: as for B1

Kd [8]: 1.59 nM
koff [8]: 0.00262 s⁻¹
kon [8]: 1.64e+06 M⁻¹ s⁻¹
Kd [9]: 2.21 nM
koff [9]: 0.00287 s⁻¹
kon [9]: 1.3e+06 M⁻¹ s⁻¹
Kd [10]: 1.95 nM
koff [10]: 0.00291 s⁻¹
kon [10]: 1.49e+06 M⁻¹ s⁻¹
Kd [11]: 1.9 nM
koff [11]: 0.00235 s⁻¹
kon [11]: 1.24e+06 M⁻¹ s⁻¹
Kd [12]: 1.22 nM
koff [12]: 0.00186 s⁻¹
kon [12]: 1.53e+06 M⁻¹ s⁻¹
Kd [13]: 0.78 nM
koff [13]: 0.00127 s⁻¹
kon [13]: 1.64e+06 M⁻¹ s⁻¹
Kd [14]: 1.61 nM
koff [14]: 0.00268 s⁻¹
kon [14]: 1.67e+06 M⁻¹ s⁻¹
Kd [15]: 1.52 nM
koff [15]: 0.00163 s⁻¹
kon [15]: 1.07e+06 M⁻¹ s⁻¹
B14: BMS3h-217-23 (other)
VL: B13 VL with T31S, Q38V, R41G, P96A, K103T
notes: as for B13

Kd [8]: 0.94 nM
koff [8]: 0.00299 s⁻¹
kon [8]: 3.17e+06 M⁻¹ s⁻¹
Kd [9]: 0.99 nM
koff [9]: 0.00242 s⁻¹
kon [9]: 2.44e+06 M⁻¹ s⁻¹
Kd [10]: 0.99 nM
koff [10]: 0.00251 s⁻¹
kon [10]: 2.55e+06 M⁻¹ s⁻¹
Kd [11]: 0.86 nM
koff [11]: 0.00212 s⁻¹
kon [11]: 2.46e+06 M⁻¹ s⁻¹
Kd [12]: 0.72 nM
koff [12]: 0.00196 s⁻¹
kon [12]: 2.73e+06 M⁻¹ s⁻¹
Kd [13]: 0.47 nM
koff [13]: 0.00127 s⁻¹
kon [13]: 2.71e+06 M⁻¹ s⁻¹
Kd [14]: 0.93 nM
koff [14]: 0.00259 s⁻¹
kon [14]: 2.78e+06 M⁻¹ s⁻¹
Kd [15]: 0.48 nM
koff [15]: 0.000981 s⁻¹
kon [15]: 2.03e+06 M⁻¹ s⁻¹
B15: BMS3h-217-5 (other)
VL: B13 VL with S10F, G30A, R41G
notes: as for B13

Reference: patent publication US20200199244A1 (published 2020)
